Measurements taken from patent publication US12391751B2, “Antibody against advanced glycation end products and use thereof” (Bloom Technology Corporation, priority 2018, dated 2025).
Blank lines part the entries; values can stand above or below the molecule they belong to.

Tests used:
A-peak-BSA [1] = target: T1, A-peak-BSA (Bos taurus, UniProt P02769); assay: Dissociation constant measurement of PB-1, Biacore T200 (Example 26); conditions: Biacore T200, CM5; ligand A-peak-BSA; PB-1 0.1953 to 50 nM; 1:1 binding model
Protocol: The dissociation constant (Kd value) of the monoclonal antibody PB-1 was measured by the following approach: A-peak-BSA was diluted with a 10 mM sodium acetate solution (pH 5.0) to prepare a ligand solution with a final concentration of 50 μg/mL. Biacore T200 (GE Healthcare Japan Corp.) was used for the immobilization of the ligand and the calculation of the KD value. The ligand solution was immobilized (final amount immobilized: 72 RU) onto sensor chip CM5 (GE Healthcare Japan Corp.) using an amine coupling kit (GE Healthcare Japan Corp.). Subsequently, PB-1 antibody dilution solutions from 0.1953 to 50 nM were prepared with a running buffer solution HBS-P+ (GE Healthcare Japan Corp.), and a sensorgram was obtained.
1:1 binding was adopted to a fitting model, and the sensorgram was analyzed.

[2] = target: T2, reaction of the SJ-5 antibody with A-peak-BSA (Bos taurus, UniProt P02769); assay: Cross-competition with HRP-labeled SJ-5 antibody by competitive ELISA (Example 33); assay type: binding; conditions: competitor antibody 0.049 to 50 μg/mL
T2 construct: made in house
Protocol: A solution of A-peak-BSA prepared into 1 μg/mL in a coating solution was added at 100 μL/well to a 96-well microtiter plate (Costar) and incubated overnight at 4° C.
Each well after the immobilization treatment was washed three times with a washing solution (300 μL), and PBS containing 0.05% Tween 20 (PBS-T) and containing 0.5% gelatin dissolved therein (200 μL) was added thereto and left standing at room temperature for 1 hour.
The PB-1 antibody, a mouse IgG isotype control (Ctrl-mIgG, Thermo Fisher Scientific Inc.), and the anti-GA-pyridine antibody 2A2 (Cosmo Bio Co., Ltd.) were each diluted with PBS-T containing 0.1% gelatin to prepare 4-fold dilution series (0.049 to 50 μg/mL). Also, a HRP-labeled SJ-5 antibody (Example 4) was diluted 10000-fold with PBS-T containing 0.1% gelatin.
Each well treated with the blocking solution was washed three times with a washing solution (300 μL), and the sample solutions of 4-fold dilution series (50 μL each) and the HRP-labeled SJ-5 antibody dilution solution (50 μL) were added thereto, stirred with a plate mixer for 2 minutes, and then incubated at room temperature for 1 hour. […]
(§1) Absorbance was measured at a dominant wavelength of 450 nm and a sub-wavelength of 650 nm with a microplate reader (Cytation 5, BioTek Instrument Inc.), and the absorbance at the sub-wavelength was subtracted from the absorbance at the dominant wavelength.

A-peak-BSA [3] = target: T1, A-peak-BSA; assay: Suppression test of DAB oxidation of A-peak-BSA (Example 32); assay type: biochemical; conditions: PB-1 1.8 mg/mL; A-peak-BSA 2 mg/mL; white LED 3000 lux overnight
Protocol: Diaminobenzidine (DAB, Dojindo Laboratories) was prepared into 5 mg/mL in a PBS solution. A-peak-BSA (2 mg/mL, PBS solution) was prepared in the same way as in Example 24. 10 μL of the DAB solution was added to a 0.6 mL microtube (Watson), and 100 μL of PBS, the PB-1 antibody (1.8 mg/mL), or a mouse IgG isotype control (Ctrl-mIgG, Thermo Fisher Scientific Inc.) was further added thereto. After stirring with a vortex mixer, 10 μL of the A-peak-BSA solution was added thereto. These solutions were stirred with a vortex mixer and then irradiated overnight with white LED (3000 lux). The solutions thus irradiated with light were stirred with a vortex mixer, then spun down, and recovered at 100 μL/well into Violamo 96-well plate (AS ONE Corp.).
Absorbance at a wavelength of 460 nm was measured with a microplate reader (Cytation 5, BioTek Instrument Inc.) to detect oxidized DAB. The ordinate of the graph depicts a relative value to oxidized DAB detected in the antibody-untreated group (PBS addition group).

[4] = Reactivity of SJ-5 with Lys-hydroxy-triosidine by competitive ELISA (Example 18); assay type: binding; conditions: immobilized Glycer-AGEs-BSA
Protocol: A solution of BSA containing AGEs derived from glyceraldehyde (stock solution: 10 mg/mL PBS solution) prepared into 1 μg/mL in a coating solution was added at 100 μL/well to a 96-well microtiter plate (COSTAR) and incubated overnight at 4° C.
Each well after the immobilization treatment was washed three times with a washing solution (300 μL), and a blocking solution (200 μL) was added thereto and left at room temperature for 1 hour.
GAL691 (prepared in Example 16) and Lys-hydroxy-triosidine (prepared in Example 17) were each dissolved in a phosphate buffer solution (0.2 M, pH 7.4) to prepare a 10 mg/mL solution. Sample solutions of 2-fold dilution series from 0.625 to 10 mg/ml (5 points) were further prepared by dilution with a diluting solution. Dilution solutions were also prepared from a blank solution containing no sample in the same way as above. […]
as §1, with “wavelength. Change in the absorbance of GAL691 and Lys-hydroxy-triosidine was indicated as relative values to the absorbance of the blank solution.” for “wavelength.”

Glycer-AGEs-BSA = Glycer-AGEs-BSA (Bos taurus, UniProt P02769); assay: Dissociation constant measurement, Biacore T200 (Example 8); assay type: binding; conditions: Biacore T200, sensor chip CM5; ligand Glycer-AGEs-BSA; antibody 0 to 400 nM
Protocol: The dissociation constant (Kd value) of the monoclonal antibody SJ-5 was measured by the following approach: BSA containing AGEs derived from glyceraldehyde (Glycer-AGEs-BSA) was diluted with a 10 mM sodium acetate solution (pH 4.0) to prepare a ligand solution with a final concentration of 100 μg/mL. Biacore T200 (GE Healthcare Japan Corp.) was used for the immobilization of the ligand and the calculation of the KD value. The ligand solution was immobilized onto sensor chip CM5 (GE Healthcare Japan Corp.) using an amine coupling kit (GE Healthcare Japan Corp.). Subsequently, antibody dilution solutions containing the monoclonal antibody diluted into concentrations from 0 to 400 nM were prepared, and the Kd value was calculated.

T1 sequence (P02769 25-607): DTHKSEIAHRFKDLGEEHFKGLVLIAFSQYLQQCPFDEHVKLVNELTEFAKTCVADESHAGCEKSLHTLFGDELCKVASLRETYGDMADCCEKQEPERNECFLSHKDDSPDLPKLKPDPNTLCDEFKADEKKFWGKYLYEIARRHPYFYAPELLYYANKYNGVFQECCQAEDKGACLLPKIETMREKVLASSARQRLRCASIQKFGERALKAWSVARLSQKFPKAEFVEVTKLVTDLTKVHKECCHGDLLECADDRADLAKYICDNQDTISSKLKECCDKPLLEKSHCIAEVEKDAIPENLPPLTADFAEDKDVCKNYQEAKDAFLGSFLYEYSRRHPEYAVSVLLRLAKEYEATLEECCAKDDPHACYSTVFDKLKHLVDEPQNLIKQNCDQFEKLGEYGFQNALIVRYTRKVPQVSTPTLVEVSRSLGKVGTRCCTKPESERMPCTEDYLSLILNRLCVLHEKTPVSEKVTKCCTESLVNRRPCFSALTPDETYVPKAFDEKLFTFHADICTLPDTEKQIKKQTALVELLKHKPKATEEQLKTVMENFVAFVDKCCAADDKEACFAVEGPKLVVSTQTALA
T2 sequence (P02769 25-607): as above
Glycer-AGEs-BSA, sequence (P02769 25-607): as above

- Kd (A-peak-BSA [1]): 4.15 nM
- oxidized DAB (absorbance at 460 nm) compared with PBS or Ctrl-mIgG treatment group (A-peak-BSA [3]): largely decreased
B1: PB-1: mouse monoclonal antibody raised against A-peak-BSA; heavy-chain variable region SEQ ID NO 18, light-chain variable region SEQ ID NO 22 (antibody, listed as Mus musculus, V domains shown)
VH: EVRLQQSGPELVKPGTSVKISCKASGYSFTGYYMHWVKQSPVKSLEWIGRIIPYNGATSYNQNFKDKASLTVDKSSRTAYMDLHSLTSEDSAVYYCARSRYYGRAPYYFDYWGQGTTLTVSS
VL: DVVVTQTPLSLPVSLGDQASISCRSSQSIVHSNGNTYLEWYLQKPGQSPKLLIYKVSNRFSGVPDRISGSGSGTDFTLKISRVEAGDLGVYSCFQGSHVPFTFGSGTKLEIK
- change in absorbance of HRP-labeled SJ-5 binding to A-peak-BSA (cross-competition) [2]: decreased in a PB-1 concentration-dependent manner

- Kd (Glycer-AGEs-BSA): 57.4 nM
B2: SJ-5: mouse monoclonal antibody raised against GAL13-MSA; heavy-chain variable region SEQ ID NO 4, light-chain variable region SEQ ID NO 8 (antibody, listed as Mus musculus, V domains shown)
VH: EVMLVESGGRLVKPGGSLKLSCAASGFTFSSYGMSWVRQTPEKRLEWVATISGGGSYTYYPDSVKGRFTISRDNVKNNLYLQMSSLRSEDTALYYCARRGAYGDYGWFAYWGQGTLVTVSA
VL: DIVLTQSPATLSVTPGDSVSLSCRASQSINNNLHWYQQKSHESPRLLIKCASQSISGIPSRFSGSGSGTDFTLSINSVETEDFGMYFCQQSNSWPLTFGAGTKLELK
- recognition of Lys-hydroxy-triosidine [4]: does not recognize
